# Results as given in paper PMC10038052.
# Like-named read-outs stand apart in the source and are kept apart here.
# How the values were obtained:
# Assay in all cases: fluorescence polarization
# [1] = target: T1, MBP-hnRNP A2/B1 (1-251) (UniProt P22626 1-251)
# [2] = target: T1, MBP-hnRNP A2/B1 (1-251); remark: listed apart in the source
# [3] = target: T2, SRSF1 RRM1+2 (UniProt Q07955 1-195)
# [4] = target: T1, MBP-hnRNP A2/B1 (1-251); remark: listed apart in the source
# [5] = target: T2, SRSF1 RRM1+2; remark: listed apart in the source
# T1 sequence (P22626 1-251): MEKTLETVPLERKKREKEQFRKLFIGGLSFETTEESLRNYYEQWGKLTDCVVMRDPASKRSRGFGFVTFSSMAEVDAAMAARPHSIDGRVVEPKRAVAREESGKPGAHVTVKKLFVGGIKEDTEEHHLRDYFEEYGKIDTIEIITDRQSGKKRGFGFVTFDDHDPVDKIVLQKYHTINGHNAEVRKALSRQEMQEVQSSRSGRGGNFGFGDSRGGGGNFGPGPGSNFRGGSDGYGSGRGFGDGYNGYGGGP
# T2 sequence (Q07955 1-195): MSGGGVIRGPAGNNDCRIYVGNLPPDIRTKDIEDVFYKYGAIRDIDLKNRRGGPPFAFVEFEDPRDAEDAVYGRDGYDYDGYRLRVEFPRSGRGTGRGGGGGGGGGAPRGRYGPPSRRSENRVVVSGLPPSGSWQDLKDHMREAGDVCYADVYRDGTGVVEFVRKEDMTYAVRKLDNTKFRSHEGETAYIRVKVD
binder,measurement,setting,value
AAGGACUAGC (ssRNA) [FAM-H1 (10 mer 1n)],Kd,[1],51.7 ± 9 nM
AAGGACUAGCAAGGACUAGC (ssRNA) [FAM-H2 (10 mer 2n)],Kd,[2],135 ± 9 nM
AGAAGAACAGAAGAACAGAAGAAC (ssRNA) [FAM-S3 (A3 3n)],Kd,[3],42.5 ± 33.9 nM
AAGGACUAGCAAGGACUAGCAAGGACUAGC (ssRNA) [FAM-H3 (10 mer 3n)],Kd,[4],24 ± 8.1 nM
AGAAGAACAGAAGAAC (ssRNA) [FAM-S2 (A3 2n)],Kd,[5],56.1 ± 17.5 nM
